# Test results published in US11612662B2, “Multi-arm polymeric prodrug conjugates of pemetrexed-based compounds” (priority 2010, dated 2023).
# Experiments:
# in vivo = conditions: for Days of Deaths (s = surviving at study end) / tolerability of the dosage level / common clinical signs / necropsy findings / Max. Mean Body Weight change during Rx (%) / Day of Max. Mean Body Weight Loss (body weight nadir) / maximum treatment-related body weight loss / time to recover lost body weight / % Rx Related Deaths: low folate diet; for Days of Deaths (s = surviving at study end): five mice listed singly; for tolerability of the dosage level: tolerated if treatment-related weight loss <20%; for Max. Mean Body Weight change during Rx (%) / MTD (maximum tolerated dose): intravenously once each day for ten days; for Day of Max. Mean Body Weight Loss (body weight nadir) / % Rx Related Deaths: once each day for ten days; for MTD (maximum tolerated dose): mice fed a folate deficient diet, dose equivalents
# Method: The purpose of this study was to determine the maximum tolerated dose for pemetrexed (PMX), Compound 20a (from Example 1), Compound 20b (from Example 1), Compound 20c (from Example 1), and Compound 20d (from Example 1) in female SCID mice fed a low folate diet. All compounds were administered intravenously, once each day, for ten consecutive days.
# Calculations were made to provide “dose equivalents” between PMX, Compound 20a, Compound 20b, Compound 20c and Compound 20d, which “dose equivalents” along with the “actual dose” administered are provided in Table 2. All dosagese in this example are expressed in terms of “dose equivalents” and adjustments were made for excipients, salts and hydration state.
# Female SCID mice (HsdIcr:Ha (ICR)-Prkdc-scid) were obtained from Harlan. They were seven weeks old on Day 1 of the experiment. The mice in Groups 1 and 2 were fed irradiated Rodent Diet 5053 (LabDiet™). The mice in Groups 3 through 19 were fed irradiated Folic Acid Deficient Purina TestDiet supplemented with 1% succinylsufathiazol from 14 days prior to dosing until 14 days after dosing was completed, at which time the study was terminated and the mice were then euthanized. All groups received drinking water ad libitum. Mice were housed in static cages in clean rooms that provide H.E.P.A filtered air into the environment at 100 complete air changes per hour. All treatments, body weight determinations, and tumor measurements were carried out in the environment. The environment was controlled to a temperature range of 70°±2° F. and a humidity range of 30-70%. […] Mice found in obvious distress or in a moribund condition were euthanized. The study was carried out in an AAALAC accredited facility.
# Treatments began on Day 1. […] Mice in Groups 3 through 19 were fed irradiated Folic Acid Deficient Purina TestDiet with 1% Succinylsufathiazol for 14 days prior to dosing as well as throughout the entire experiment. All mice were dosed according to individual body weight on the day of treatment (0.2 ml/20 g).
# Mice were weighed on each day of treatment and at least three times weekly thereafter. Individual body weights were recorded three times weekly. […] In this report, a dosage level is described as tolerated if treatment-related weight loss (during and two weeks after treatment) is <20%. Upon death or euthanasia, all mice were necropsied to provide a general assessment of potential cause of death and perhaps target organs for toxicity.
# [1] = Single dose maximum tolerated dose study; format: in vivo, mice; conditions: single intravenous dose; for Single dose MTD: dose equivalents, in mg/kg
# Method: Because of too much efficacy of daily dosing for ten days in a pilot xenograft study (likely due to the effects of repeated dosing), a single dose maximum tolerated dose study was conducted using a method similar to that provided in Example 3 in order to have a better dosing schedule for a comparative xenograft study.
# xenograft = assay: In vivo xenograft study; set-up: species or system female athymic nu/nu mice; conditions: as of day 26; intravenously, at 80% and at 50% of the single dose maximum tolerated dose
# Method: Briefly, for run of the experiment, a previously untreated group of 8-12 week old mice was intravenously administered a test article prepared in saline and diluted to appropriate concentrations to allow administration volumes of a maximum of 20 mL/kg. Each compound of interest was tested twice: once at 80% of the maximum tolerated dose and once at 50% of the maximum tolerated (maximum tolerated doses calculated on the single dose maximum tolerated dose study).
# Mice were observed daily for clinical signs and body weights were recorded daily (except on weekend days) then biweekly until the end of study. Dosing was terminated for any group in which mean weight loss exceeded 20% or >10% of animals died. Moribund animals were euthanized.
# [2] = 3.75 mg/kg/inj dose equivalents
substance,measurement,setting,value
4-arm-PEG20k-γ-amide-Pemetrexed Conjugate [Compound 20b],Days of Deaths (s = surviving at study end),in vivo; 1 mg/kg/inj dose equivalents,"s, s, s, s, s"
same,tolerability of the dosage level,in vivo; 1 mg/kg,well tolerated
same,Days of Deaths (s = surviving at study end),in vivo; [2],"s, s, s, s, s"
same,tolerability of the dosage level,in vivo; 3.75 mg/kg,well tolerated
same,Days of Deaths (s = surviving at study end),in vivo; 15 mg/kg/inj dose equivalents,"s, s, s, s, s"
same,tolerability of the dosage level,in vivo; 15 mg/kg,well tolerated
same,common clinical signs,in vivo; dosage levels found tolerated,Rough pelage
same,necropsy findings,in vivo; dosage levels found tolerated,Nothing significant
same,Max. Mean Body Weight change during Rx (%),in vivo; 1 mg/kg/inj dose equivalents,−1.8%
same,Max. Mean Body Weight change during Rx (%),in vivo; [2],−6.5%
same,Max. Mean Body Weight change during Rx (%),in vivo; 15 mg/kg/inj dose equivalents,−16.9%
same,Day of Max. Mean Body Weight Loss (body weight nadir),in vivo; 1 mg/kg/inj dose equivalents,5
same,Day of Max. Mean Body Weight Loss (body weight nadir),in vivo; [2],5
same,Day of Max. Mean Body Weight Loss (body weight nadir),in vivo; 15 mg/kg/inj dose equivalents,12
same,MTD (maximum tolerated dose),in vivo,~15 mg/kg
same,Single dose MTD,[1],70
same,BWL (body weight loss),[1]; tested dose (equiv) 70,−8.7%
same,day (of body weight loss),[1]; tested dose (equiv) 70,7
same,treatment-related deaths,[1]; tested dose (equiv) 70,0
same,BWL (body weight loss),[1]; tested dose (equiv) 95,−16.4%
same,day (of body weight loss),[1]; tested dose (equiv) 95,7
same,treatment-related deaths,[1]; tested dose (equiv) 95,0
same,BWL (body weight loss),[1]; tested dose (equiv) 125,−24.4%
same,day (of body weight loss),[1]; tested dose (equiv) 125,7
same,mean day of death,[1]; tested dose (equiv) 125,9
same,treatment-related deaths,[1]; tested dose (equiv) 125,1
same,tumor volume compared with saline control,xenograft,significantly less tumor volume than saline control
same,tumor volume compared with the other articles tested,xenograft,lowest tumor volumes of all articles tested
4-arm-PEG-40k-γ-Ethyl-Ester-pemetrexed [Compound 24c],Single dose MTD,[1],10
same,BWL (body weight loss),[1]; tested dose (equiv) 5,−0.5%
same,day (of body weight loss),[1]; tested dose (equiv) 5,5
same,treatment-related deaths,[1]; tested dose (equiv) 5,0
same,BWL (body weight loss),[1]; tested dose (equiv) 10,−7.6%
same,day (of body weight loss),[1]; tested dose (equiv) 10,5
same,treatment-related deaths,[1]; tested dose (equiv) 10,0
same,BWL (body weight loss),[1]; tested dose (equiv) 15,−15.7%
same,day (of body weight loss),[1]; tested dose (equiv) 15,7
same,treatment-related deaths,[1]; tested dose (equiv) 15,0
same,tumor volume compared with saline control,xenograft,significantly less tumor volume than saline control
4-arm-PEG10k-γ-amide-Pemetrexed Conjugate [Compound 20a],maximum treatment-related body weight loss,in vivo; 1 mg/kg,approximately 3.0%
same,tolerability of the dosage level,in vivo; 1 mg/kg,tolerated
same,maximum treatment-related body weight loss,in vivo; 3.75 mg/kg,approximately 3.0%
same,Days of Deaths (s = surviving at study end),in vivo; [2],"s, s, s, s, s"
same,tolerability of the dosage level,in vivo; 3.75 mg/kg,tolerated
same,maximum treatment-related body weight loss,in vivo; 15 mg/kg,14.9%
same,time to recover lost body weight,in vivo; 15 mg/kg,approximately 10 days
same,tolerability of the dosage level,in vivo; 15 mg/kg,toxic
same,common clinical signs,in vivo; dosage levels found tolerated,Rough pelage
same,necropsy findings,in vivo; dosage levels found tolerated,bloated intestines and air filled stomachs
same,Max. Mean Body Weight change during Rx (%),in vivo; 1 mg/kg/inj dose equivalents,−3.4%
same,Max. Mean Body Weight change during Rx (%),in vivo; [2],−3.0%
same,Max. Mean Body Weight change during Rx (%),in vivo; 15 mg/kg/inj dose equivalents,−14.9%
same,% Rx Related Deaths,in vivo; 1 mg/kg/inj dose equivalents,20%
same,Day of Max. Mean Body Weight Loss (body weight nadir),in vivo; 1 mg/kg/inj dose equivalents,5
same,% Rx Related Deaths,in vivo; [2],0%
same,Day of Max. Mean Body Weight Loss (body weight nadir),in vivo; [2],8
same,% Rx Related Deaths,in vivo; 15 mg/kg/inj dose equivalents,40%
same,Day of Max. Mean Body Weight Loss (body weight nadir),in vivo; 15 mg/kg/inj dose equivalents,8
same,MTD (maximum tolerated dose),in vivo,3.75 to 15 mg/kg
4-arm-PEG-20k-γ-Ethyl-Ester-pemetrexed [Compound 24b],Single dose MTD,[1],12
same,treatment-related deaths,[1]; tested dose (equiv) 8,0
same,BWL (body weight loss),[1]; tested dose (equiv) 12,−8.9%
same,day (of body weight loss),[1]; tested dose (equiv) 12,5
same,treatment-related deaths,[1]; tested dose (equiv) 12,0
same,BWL (body weight loss),[1]; tested dose (equiv) 20,−10.4%
same,day (of body weight loss),[1]; tested dose (equiv) 20,5
same,treatment-related deaths,[1]; tested dose (equiv) 20,0
same,tumor volume compared with saline control,xenograft,significantly less tumor volume than saline control
4-arm-PEG-20k-γ-isopropyl-ester-pemetrexed [Compound 28],Single dose MTD,[1],10
same,BWL (body weight loss),[1]; tested dose (equiv) 10,−7.3%
same,day (of body weight loss),[1]; tested dose (equiv) 10,9
same,treatment-related deaths,[1]; tested dose (equiv) 10,0
same,BWL (body weight loss),[1]; tested dose (equiv) 18,−6.6%
same,day (of body weight loss),[1]; tested dose (equiv) 18,5
same,treatment-related deaths,[1]; tested dose (equiv) 18,0
same,BWL (body weight loss),[1]; tested dose (equiv) 25,−9.1%
same,day (of body weight loss),[1]; tested dose (equiv) 25,7
same,treatment-related deaths,[1]; tested dose (equiv) 25,0
same,tumor volume compared with saline control,xenograft,significantly less tumor volume than saline control
4-arm-PEG40k-γ-amide-Pemetrexed Conjugate [Compound 20d],maximum treatment-related body weight loss,in vivo; 1 mg/kg,0.9%
same,time to recover lost body weight,in vivo; 1 mg/kg,0.8 days
same,Days of Deaths (s = surviving at study end),in vivo; 1 mg/kg/inj dose equivalents,"s, s, s, s, s"
same,tolerability of the dosage level,in vivo; 1 mg/kg,tolerated
same,maximum treatment-related body weight loss,in vivo; 3.75 mg/kg,4.5%
same,time to recover lost body weight,in vivo; 3.75 mg/kg,11.3 days
same,Days of Deaths (s = surviving at study end),in vivo; [2],"s, s, s, s, s"
same,tolerability of the dosage level,in vivo; 3.75 mg/kg,tolerated
same,maximum treatment-related body weight loss,in vivo; 15 mg/kg,28.8%
same,time to recover lost body weight,in vivo; 15 mg/kg,not recovered prior to study termination
same,tolerability of the dosage level,in vivo; 15 mg/kg,toxic
same,common clinical signs,in vivo; dosage levels found tolerated,Rough pelage
same,necropsy findings,in vivo; dosage levels found tolerated,Nothing significant
same,common clinical signs,in vivo; dosage levels found toxic,Rough pelage
same,necropsy findings,in vivo; dosage levels found toxic,Nothing significant
same,Max. Mean Body Weight change during Rx (%),in vivo; 1 mg/kg/inj dose equivalents,−0.9%
same,Max. Mean Body Weight change during Rx (%),in vivo; [2],−4.5%
same,Max. Mean Body Weight change during Rx (%),in vivo; 15 mg/kg/inj dose equivalents,−28.8%
same,Day of Max. Mean Body Weight Loss (body weight nadir),in vivo; 1 mg/kg/inj dose equivalents,5
same,Day of Max. Mean Body Weight Loss (body weight nadir),in vivo; [2],5
same,% Rx Related Deaths,in vivo; 15 mg/kg/inj dose equivalents,40%
same,Day of Max. Mean Body Weight Loss (body weight nadir),in vivo; 15 mg/kg/inj dose equivalents,15
same,MTD (maximum tolerated dose),in vivo,3.75 to 15 mg/kg
same,Single dose MTD,[1],~40
same,BWL (body weight loss),[1]; tested dose (equiv) 40,−12.6%
same,day (of body weight loss),[1]; tested dose (equiv) 40,7
same,treatment-related deaths,[1]; tested dose (equiv) 40,0
same,BWL (body weight loss),[1]; tested dose (equiv) 60,−20.8%
same,day (of body weight loss),[1]; tested dose (equiv) 60,9
same,treatment-related deaths,[1]; tested dose (equiv) 60,0
same,BWL (body weight loss),[1]; tested dose (equiv) 90,−21.4%
same,day (of body weight loss),[1]; tested dose (equiv) 90,9
same,mean day of death,[1]; tested dose (equiv) 90,12
same,treatment-related deaths,[1]; tested dose (equiv) 90,1
same,BWL (body weight loss),[1]; tested dose (equiv) 125,−21.8%
same,day (of body weight loss),[1]; tested dose (equiv) 125,6
same,mean day of death,[1]; tested dose (equiv) 125,7
same,treatment-related deaths,[1]; tested dose (equiv) 125,5
same,tumor volume compared with saline control,xenograft,significantly less tumor volume than saline control
same,tumor volume compared with the other articles tested,xenograft,lowest tumor volumes of all articles tested
